Reference: US20230365705A1 (DYNAMICURE BIOTECHNOLOGY, published 2023)
Each block holds one binder with its values, some of them ahead of it.

How the values were obtained:
[1] = molecular target: T1, Human CD93 recombinant protein (Sino Biological Inc, Catalog #12589-H08H) (human, UniProt Q9NPY3 22-580); test: summary table, column ELISA (hCD93)
T1 construct: Biotinylated (EZ-LINK NHS-PEG4 biotin) in the BLI assays; also called hCD93; His-tagged human CD93
T1 sequence (looked up): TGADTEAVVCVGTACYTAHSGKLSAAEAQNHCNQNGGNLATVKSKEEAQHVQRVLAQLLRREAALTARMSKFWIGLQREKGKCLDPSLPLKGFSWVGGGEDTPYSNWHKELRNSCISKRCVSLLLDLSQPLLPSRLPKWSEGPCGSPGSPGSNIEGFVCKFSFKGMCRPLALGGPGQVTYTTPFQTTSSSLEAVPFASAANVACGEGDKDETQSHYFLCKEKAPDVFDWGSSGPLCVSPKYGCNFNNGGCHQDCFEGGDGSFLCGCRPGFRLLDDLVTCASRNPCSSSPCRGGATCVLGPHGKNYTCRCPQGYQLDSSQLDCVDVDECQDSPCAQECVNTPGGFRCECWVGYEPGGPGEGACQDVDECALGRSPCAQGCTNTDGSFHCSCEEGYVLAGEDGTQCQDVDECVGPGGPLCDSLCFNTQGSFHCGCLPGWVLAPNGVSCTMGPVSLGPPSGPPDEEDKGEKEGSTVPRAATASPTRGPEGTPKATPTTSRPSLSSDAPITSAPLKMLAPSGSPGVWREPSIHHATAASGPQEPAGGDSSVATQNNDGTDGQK

[2] = molecular target: T1, Human CD93 recombinant protein (Sino …); test: summary table, column Octet (hCD93)
[3] = molecular target: T2, Human CD93 on cells (human CD93 expressing CHO cells; HUVEC, U937 and KG1a cells) (human, UniProt Q9NPY3 22-652); test: flow cytometry titration, KG1a cells
T2 construct: whole, on cells; also called hCD93 expressing CHO cells; hCD93 CHO cells
T2 sequence (looked up): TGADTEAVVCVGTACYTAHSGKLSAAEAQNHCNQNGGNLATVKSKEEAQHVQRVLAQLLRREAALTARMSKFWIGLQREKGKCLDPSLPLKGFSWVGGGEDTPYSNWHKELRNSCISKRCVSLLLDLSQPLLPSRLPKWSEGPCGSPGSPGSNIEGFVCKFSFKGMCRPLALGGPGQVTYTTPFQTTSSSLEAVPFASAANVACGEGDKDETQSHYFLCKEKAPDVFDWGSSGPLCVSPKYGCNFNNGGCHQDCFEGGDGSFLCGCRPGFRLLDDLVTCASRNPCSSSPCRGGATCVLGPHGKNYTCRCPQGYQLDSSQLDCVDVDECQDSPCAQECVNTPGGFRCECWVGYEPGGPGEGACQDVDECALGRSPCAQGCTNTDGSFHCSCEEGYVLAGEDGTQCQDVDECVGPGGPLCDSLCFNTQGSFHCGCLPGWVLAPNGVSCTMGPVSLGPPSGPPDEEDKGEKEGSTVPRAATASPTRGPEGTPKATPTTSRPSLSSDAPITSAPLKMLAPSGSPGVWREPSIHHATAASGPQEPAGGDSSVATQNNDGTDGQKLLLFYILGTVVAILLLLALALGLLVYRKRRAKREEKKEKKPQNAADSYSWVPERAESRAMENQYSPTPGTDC
Experimental: (§1) KG1a cells were detached by incubation with TrypLE reagents (Thermo Fisher), which preserves the integrity of CD93 on the cell surface. Then the cells were incubated with serial diluted anti-CD93 antibodies for 30 minutes at 4° C. After washing by FACS buffer, the cells were incubated with Alexa Fluor 647 conjugated anti-human IgG (Jackson ImmunoResearch) for 30 minutes in 4° C. After washing by FACS buffer twice, the samples were acquired in NovoCyte Flow Cytometer and analyzed by NovoExpress software.

[4] = molecular target: T2, Human CD93 on cells (human CD93 …); test: summary table, column FACS (KG1a cells)
Experimental: as §1, §1

[5] = molecular target: T1, Human CD93 recombinant protein (Sino …); test: summary table, column ELISA (hCD93); 2 weeks at 40 C
Experimental: (§2) His-tagged human CD93 was coated onto a 96 well plate at 1 μg/mL in 1×PBS overnight at 4° C. The plate was washed with ELISA wash buffer (Boston BioProduct, Inc.) and the wells were blocked with ELISA blocking buffer for 1 hour at 37° C. […] The plate was washed with ELISA wash Buffer. HRP-conjugated anti-human Fc antibody was incubated for 1 hour at 37° C. The plate was washed with ELISA wash Buffer. HRP substrate was added for indirect detection of the antibodies binding to CD93.
as §2

[6] = molecular target: T1, Human CD93 recombinant protein (Sino …); test: summary table, column Octet (hCD93); 2 weeks at 40 C
Experimental: (§3) The binding affinity of anti-CD93 antibodies was determined with bio-layer interferometry using Octet QKe (Fortebio). […] Human CD93 recombinant protein (Sino Biological Inc, Catalog #12589-H08H) was biotinylated using EZ-LINK NHS-PEG4 biotin (Thermo Fisher Scientific). Streptavidin biosensors (Fortebio) were used to load biotinylated CD93 protein (300 seconds in 5 μg/ml). Baseline was stabilized for 60 seconds in 1×kinetics buffer (Fortebio) before anti-CD93 antibodies, at a serial dilution, were allowed to associate for 300 seconds with captured protein. Then the sensors were dissociated in 1× kinetics buffer for 600 seconds. […] (FIG. 41).
as §3, with “1× kinetics” for “1×kinetics”, “42).” for “41).”

[7] = molecular target: T2, Human CD93 on cells (human CD93 …); test: summary table, column FACS (CHO-hCD93 cells); 4 weeks at 40 C

EC50 [1]: 0.033 nM
Kd [2]: 0.416 nM
EC50 [3]: 0.131 nM
EC50 [4]: 0.131 nM
EC50 [5]: 0.049 nM
Kd [6]: 0.0204 nM
EC50 [7]: 0.312 nM
B1: h16E4 (humanized 16E4, VH4+VL6) (antibody, V domains shown)
VH: QVQLVQSGAEVKKPGASVKVSCKASGYTFTSYWMHWVRQAPGQGLEWMGEIDPSASYTYYNQKFKGRVTMTRDKSSSTVYMELSSLTSEDSAVYYCARSVYYGNKYFDVWGAGTTVTVSS
VL: DIQMTQSPSTLSASVGDRVTITCKASQSVDYAGDSYMNWYQQKPGKAPKLLIYAASNLESGVPSRFSGSGSGTEFTLTISSLQPDDFATYYCQQTNEDPRTFGGGTKLEIK
notes: Detected with anti-human IgG, so a human Fc

EC50 [1]: 0.112 nM
Kd [2]: 0.334 nM
B2: 16E4 (hybridoma) (antibody, IgG2a, V domains shown)
VH: QVQLQQPGAELVKPGASVKLSCKASGYTFTSYWMHWVKQRPGQGLEWIGEIDPSASYTYYNQKFKGKATLTVDKSSSTAYMQLSSLTSEDSAVYYCARSVYYGNKYFDVWGAGTTVTVSS
VL: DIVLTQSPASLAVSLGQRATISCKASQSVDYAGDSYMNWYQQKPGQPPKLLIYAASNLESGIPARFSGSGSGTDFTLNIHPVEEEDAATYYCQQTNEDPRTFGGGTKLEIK
notes: also called 16E4 mAb; 16E4 mIgG2a

EC50 [1]: 0.0427 nM
Kd [2]: 0.472 nM
EC50 [3]: 0.024 nM
EC50 [4]: 0.024 nM
EC50 [5]: 0.0413 nM
Kd [6]: 0.495 nM
EC50 [7]: 0.195 nM
B3: h7F3 (humanized 7F3, VH3+VL3) (antibody, human IgG1, V domains shown)
VH: QVQLVQSGAEVKKPGASVKVSCKASGYTFTDYEMHWVRQAPGQGLEWMGGIDPETGDTAYNQNFKGRVTMTTDTSTSTAYMELRSLTSDDTAVYYCTNYGNLYYYAMDYWGQGTSVTVSS
VL: EIVLTQSPSSLSASVGDRVTITCRASSSVSSSYLHWYQQKPGKAPKLLIYSTSNLAFGVPSRFSGSGSGTSYTFTISSLQPEDIATYYCQQYSGYPLTFGSGTKLEIK
notes: also called humanized 7F3-hIgG1
